One test deals with T1, BAPP-770 (Homo sapiens, UniProt P05067).
T1 construct: host or cells: baculovirus-derived
The conditions noted are these: single binding site; cited from earlier work.

For another test, the target named is T2, BAPP-695 (Homo sapiens, UniProt P05067).
T2 construct: host or cells: baculovirus-derived
The conditions noted are these: single binding site; cited from earlier work.

Test [1] concerns β/A4 amyloid deposition in rat hippocampus. The test is described as follows: Rat infusion model of β/A4 amyloid deposition in hippocampus. Format: in vivo. The conditions noted are these: 1 week infusion. How it is done:
For infusion studies, all reagents were dissolved and stored at 4° C. the night prior to surgery. β/A4 (residues 1-40; Bachem California Inc., Torrance, Calif.; Lot #ZJ209) was initially dissolved at 10 mg/ml in 35% acetonitrile (stock solution), with the final diluted concentration of acetonitrile less than 3% in animals infused with β/A4 or its vehicle (see below). Perlecan (basement membrane derived HSPG) and heparan sulfate (HS) GAGs were isolated and purified from the mouse Engelbreth-Holm-Swarm (EHS) sarcoma as described (6), and dissolved in sterile saline at 5 mg/ml and 10 mg/ml, respectively. Male Sprague-Dawley rats (250-300 gms; 3 months old; Harlan Sprague Dawley) were implanted with Alzet 2002 minipumps delivering the following solutions directly into hippocampus at a flow rate of 0.5 μl per hour for one week (7); 1) β/A4 (7.5 μl stock) & HSPG (92.5 μl stock), 6 animals; 2) β/A4 (7.5 μl stock) & HS GAGs (92.5 μl stock), 4 animals; 3) β/A4 (7.5 μl stock) & saline (92.5 μl), 6 animals; 4) HSPG only (100 μl), 4 animals; 5) HS GAGs only (100 μl), 4 animals; 6) saline only (100 μl), 4 animals; and 7) 35% acetonitrile (β/A4 vehicle, 7.5 μl) & saline (92.5 μl), 2 animals. High concentrations of these reagents were chosen to maximize possible effects following infusion into brain. The approximate quantity of β/A4 peptide infused into brain by the end of 1 week in each animal having β/A4 (1-40) as part of the infusate was 75 μg, at least 5 times the amount previously reported in rat models employing single acute injections (8, 9). After one week of continuous infusion, rats were sacrificed by overdose with pentobarbital and perfused with 100 ml of saline followed by 150 ml of 4% paraformaldehyde buffered with phosphate (pH 7.4), postfixed for 24 hours and transferred to phosphate buffered saline for paraffin embedding. Once embedded, consecutive 6 μm serial sections were cut and placed on poly-D-lysine coated slides. Two additional animals in the β/A4 only and the β/A4 & HSPG groups were processed for electron microscopy as described (10).
Detection of infused macromolecules was monitored using two polyclonal antibodies against synthetic β/A4 (either against β/A4 1-28 or 1-40) (13), and two monoclonal antibodies recognizing either HS GAGs (HK-249) (14) or the core protein of perlecan (HK-102) (15). Additionally, two polyclonal antibodies recognizing the core protein of perlecan (17) assessed effects of infused macromolecules (16) on endogenous brain HSPGs. Detection of other AD-like markers included Alz-50 antibody immunostaining (18), and silver staining by the modified Bielschowsky method (19). Possible inflammation-associated amyloid protein involvement was monitored by AA amyloid protein immunostaining (20). The presence of other cell types such as astrocytes was detected by immunostaining with a polyclonal antibody to glial fibrillary acidic protein (GFAP) (1:10,000 dilution; Dako), whereas microglia/macrophage infiltration was detected using a rat monoclonal antibody known as ED1 (1:2500 dilution; Serotec). For all immunostaining, negative controls consisted of using Tris-buffered saline (TBS) instead of the primary antibody, and/or preabsorption experiments using the primary antibody in the presence of excess antigen. In order to quantify possible staining and/or immunostaining differences between the various infusion groups, slides were scored blindly by two independent investigators as described (21) (Table 1; see FIG. 35).
7. Rats were anesthetized with pentobarbital (50 mg/kg) and a 27 gauge steel cannula was stereotactically implanted into the hippocampus using bregma as reference point (AP −4.8; ML 3.5; DV 4), and secured to the skull by machine screws and dental acrylic. The cannula was connected via a 15 cm coil of vinyl tubing to a model 2002 osmotic minipump (Alzet Inc.) placed subcutaneously beneath the shoulder blades. […]

In test [2] the target is T3, Beta-Amyloid Protein (1-28) (Homo sapiens, UniProt P05067).
T3 construct: residues 1-28 of BAP or residues 597-624 of BAPP; purchased Bachem Inc., Torrance, Calif; host or cells: synthetic peptide
In words: Competitive inhibition of 125I-labeled HSPG binding to BAP (1-28) affinity column. How it is done:
^125I-labeled HSPGs in the presence of increasing concentrations of unlabeled GAGs, or large low density HSPG (from EHS sarcoma) were applied to an Affi-gel 10 column containing BAP (residues 1-28). After nonbound PGs were eluted from the column using TBS+0.1% TX-100, bound PGs were eluted with a step gradient using 15 ml of 1M MgCl2 in TBS+0.1% TX-100, followed by 15 ml of 4M MgCl2 in TBS+0.1% TX-100, and then 10 ml of 8M urea buffer containing 3M NaCl. […] Bars indicate standard error of the mean.
In order to test the specificity of HSPG binding to BAP (1-28), competitive inhibition experiments were also performed. 125-I labeled HSPGs (100,000-200,000 dpm) were mixed with (a) HSPG from EHS sarcoma (Mr approximately 700,000) (Kato et al., 1988) (gift of Dr. Koji Kimata, Aichi, Japan), (b) heparin from porcine intestinal mucosa (Mr˜11,000; Sigma, St. Louis, Mo.), (c) chondroitin-6-sulfate from shark cartilage (Mr˜59,000; Sigma, St. Louis, Mo.), or (d) […] dextran sulfate (Mr˜110,000; Pharmacia Fine Chemicals, Uppsala, Sweden). The samples were incubated on a rotator for 2 hours at room temperature and then applied to the BAP (1-28) column. Columns were run and eluted with step gradients (1 to 4 M MgCl2) as described above.
Purified iodinated HSPGs were combined with various concentrations of unlabeled competing ligands and applied to a BAP (1-28) affinity column (FIG. 10).

Test [3] has as its target basic fibroblast growth factor (Homo sapiens, UniProt P09038). The following applies: mediated by heparan sulfate GAG chains; cited from earlier work.
Another test concerns the target T4, BAPP-751 (Homo sapiens, UniProt P05067).
T4 construct: host or cells: baculovirus-derived
The following applies: single binding site; cited from earlier work.

basic fibroblast growth factor, sequence (P09038 143-288, species assumed): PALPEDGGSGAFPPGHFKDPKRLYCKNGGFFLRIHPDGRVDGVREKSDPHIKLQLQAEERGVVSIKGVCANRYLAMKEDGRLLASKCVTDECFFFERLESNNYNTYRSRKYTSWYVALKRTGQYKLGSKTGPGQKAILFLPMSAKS

“EHS basement-membrane HSPG: basement membrane derived heparan sulfate proteoglycan (perlecan) from mouse Engelbreth-Holm-Swarm sarcoma, Mr approximately 700,000”: the Kd (as a rule, the constant that tells how readily two partners part at equilibrium) is 9 nM with BAPP-770, 0.9 nM in the test with BAPP-695, 30000 nM in test [3] and 10 nM with BAPP-751. Further, in test [1], the “Alz-50 immunostaining adjacent to infusion site” value is listed as “Lack”. For the same substance, the “inhibition of binding of 125I-labeled HSPGs to the BAP (in words)” value in test [2] (listed as EHS HSPG) is on record as “more effective competitor”; in test [2] (listed as isolated basement membrane HSPG), “strongly inhibited”. The IC50 in test [2] (unlabeled competing ligand, BAP (1-28) affinity column, read-out: concentration at 50% inhibition of 125I-HSPG binding to BAP) was less than 1000 nM.

Source of the values: patent US6340783B1, “Rodent models of human amyloidoses” (University of Washington, priority 1992, dated 2002).
